Experimental data from the supplement of paper PMC9170038.

Tested on: MS2 coat protein
Test: apparent KD of MS2 coat protein; designed switch direction (-1 OFF switch, 1 ON switch): -1; higher = weaker reporter binding
Summary of the method: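 Designed RNA switches with common flanks were transcribed on Illumina chips by stalled E. coli RNA polymerase and titrated with SNAP-549-labelled MS2 coat protein, from 0.7 or 1.5 nM doubling to 3 µM, in Tris-HCl pH 7.5 buffer with KCl, MgCl2, BSA, DTT, tRNA and Tween-20. Steps lasted 0.8–1.5 h (lowest) to 10–20 min (highest). Titrations ran without input, with 200 uM small-molecule ligand, or with an oligonucleotide input. Normalised cluster fluorescence was curve-fitted, and apparent KD is the per-design median over clusters.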

[1] = Eterna round: R95, input ligand: microRNA oligo, concentration not stated
[2] = Eterna round: R95, input ligand: FMN 200 uM
[3] = Eterna round: R95, input ligand: none
[4] = input ligand: microRNA oligo, concentration not stated

Sequence | apparent KD of MS2 coat protein (input ligand: FMN 200 uM) | apparent KD of MS2 coat protein (input ligand: none) | apparent KD of MS2 coat protein [4] | further results
AAUAACAGAGGAUAUACUAUUUUAUGUGUUUGUUAUUUUAAACAUGAGGAUCACCCAUGUAGAAGGCUGAGUAA [JMF 29] (puzzle: Exclusion 2) |  |  |  | apparent KD of MS2 coat protein [1]: 21.9 nM
AAUAACAGAGGAUAUACUAUUUUAUGUGUUUGUUAUUUUGAACAUGAGGAUCACCCAUGUAGAAGGCUGAAUGA [JMF 65] (puzzle: Exclusion 2) |  |  |  | apparent KD of MS2 coat protein [1]: 24.7 nM
AAUAACAGAGGAUAUACUGUUUUAUGUGUUUGUUAUUUUGAACAUGAGGAUCACCCAUGUAGAAGGCUGAUUGA [JMF 76] (puzzle: Exclusion 2) |  |  |  | apparent KD of MS2 coat protein [1]: 46 nM
AAUAACAUGUUGAUCAAAGACAUGAGGAUCACCCAUGUCAGCUUUUUGUUCGUAGAUUAACACUAAUAAUAAUAAUA [Stov1new/2-C] (Eterna round: R97, puzzle: Sensor, turn-off variant 1) | 16.5 nM | 16.5 nM |  | 
AAUAACUGAGGAUAUACUAAAAUAUGAAUAAAAUAAAUAAAACAUGAGGAUCACCCAUGUAGAAGGCAGAAUAA [JMF's Not so obvious solution 8] (puzzle: Exclusion 2) |  |  |  | apparent KD of MS2 coat protein [2]: 21.4 nM; apparent KD of MS2 coat protein [1]: 23.3 nM; apparent KD of MS2 coat protein [3]: 21.5 nM
AAUAAGCGAGGAUAUACUAUUCCUCGACCGGCAGAAACCGGACUUGAGGAUCACCCAAGUAGAAGGCGCAAAAC [Oninso] (Eterna round: R97, puzzle: Exclusion 2) | 448 nM | 32.8 nM |  | 
AAUAAGCUAGGAUAUACAUGAGGAUCACCCAUGUGAGGGCACGGCCGGCGCGUUUCCGGUAGAAGGAGUCAUAA [Exc;s3-VII] (puzzle: Exclusion 3) |  |  |  | apparent KD of MS2 coat protein [1]: 33.2 nM
AAUACAAGCAAGAUCCUAAACAUGAGGAUCACCCAUGUGCUCGUCUUGUAAAGUACUAUCACGAAAGUGAUAGUACA [Sensor 3, v1 - 62] (puzzle: Sensor v3, turn-off variant 1) |  |  |  | apparent KD of MS2 coat protein [2]: 29.4 nM; apparent KD of MS2 coat protein [1]: 103 nM; apparent KD of MS2 coat protein [3]: 32.7 nM
AAUAGACAUGAGGAUCACCCAUGUCAGGAUAUUUCGAGUAAGGUGGGCCUAGAAUUGGGAAGAAGGGACCUGGA [Eternabot (L1) Solution 29] (Eterna round: R97, puzzle: Exclusion 1) | 17.7 nM | 21.3 nM |  | 
AAUCAUCAUGUAGGAUAUGCGUGGCGAAGCUAUGCAGAAGGACAUGAGGAUCACCCAUGUUCUUGCGUCUGCGUACAGAUGCAA [Mat - Exclusion NG 1 - Mod of JL - D72] (Eterna round: R96, puzzle: Exclusion NG 1) | 135 nM | 72 nM | 67.7 nM | 
AAUCGGUGAGGAUAUCUAUUGCGGGAGGAAAUUCGCGAAACGGAGAAGGCACAUGAGGAUCACCCAUGUGAAUC [EX4 C.18] (Eterna round: R97, puzzle: Exclusion 4) | 25.7 nM | 18.8 nM |  | 
AAUCUACAUGUAGGAUAUGCGUGGCAAAGCUAUGCAGAAGGACAUGAGGAUCACCCAUGUUUUAGCGUCUGCGUACAGAUGCGA [Mat - Exclusion NG 1 - Mod of JL - D100] (Eterna round: R96, puzzle: Exclusion NG 1) | 147 nM | 27.9 nM | 18.4 nM | 
AAUGAGCAAGUCAGGAUAUUAAGCCACAGCUGGCGUAAGAAGGGACAUGAGGAUCACCCAUGUUCAUCCAAUGG [Eternabot (Original) Solution 15] (Eterna round: R97, puzzle: Brourd's mod of Exclusion 4) | 24.5 nM | 15.9 nM |  | 
AAUGAUUGACGAGGAUAUUGUGGUGAAACACGACGAGAAGGCGUAUGUCACAUGAGGAUCACCCAUGUGUGCUUUGUGGAUAUA [Ex NG1 #69] (Eterna round: R96, puzzle: Exclusion NG 1) | 39.7 nM | 31.1 nM | 24.2 nM | 
AAUUAAACAAGCAGAUCCCACAUGAGGAUCACCCAUGUGCUCGUCUUAUAAGGUACUGUGACAAAAGUCACGGUACC [Mat - Sensor, turn-off var - Eli Mod - D67] (Eterna round: R97, puzzle: Sensor, turn-off variant 1) | 47.9 nM | 51.7 nM |  | 
AAUUAACAUCAGGAUAUGACUAGCGAUAGCUAGUCAGAAGGGAUGACAUGAGGAUCACCCAUGUGAUCAAUUAA [E6/2-A4] (Eterna round: R97, puzzle: Exclusion 6) | 492 nM | 131 nM |  | 
AAUUAAUAUCAGGAUAUGACGUGCGAUAGCACGUCAGAAGGGAUGACAUGAGGAUCACCCAUGUGAUCAAUUAA [E6/1-A4] (Eterna round: R97, puzzle: Exclusion 6) | 150 nM | 33 nM |  | 
AAUUAGUAUGUGAGGAUAUUAAUGGAAUGACUUAUUAAGAAGGCACAUGAGGAUCACCCAUGUGGGAAGUCACG [JR_BMEx4_Sub013] (Eterna round: R97, puzzle: Brourd's mod of Exclusion 4) | 49.2 nM | 15.6 nM |  | 
AAUUAUUAUUGAGGAUAUGGUAGUGAAACACUACCAGAAGGCGGUAUAAACAUGAGGAUCACCCAUGUGAGCCUGAUGCUUAUG [Ex NG1 #45] (Eterna round: R96, puzzle: Exclusion NG 1) |  |  | 18.6 nM | 
AAUUAUUGAUGAGGAUAUUGUGGUGAAACACCACAAGAAGGCAUUAUACACAUGAGGAUCACCCAUGUGAGCCUGAUGCAUAUA [Ex NG1 #56] (Eterna round: R96, puzzle: Exclusion NG 1) |  |  | 13.2 nM | 
AAUUAUUGAUGAGGAUAUUGUGGUGAAACACGACGAGAAGGCAUAUGUCACAUGAGGAUCACCCAUGUGAGCCUUGUGCAUAUA [Ex NG1 #64] (Eterna round: R96, puzzle: Exclusion NG 1) |  |  | 15.8 nM | 
AAUUAUUUAUGAGGAUAUUGUGGUGAAACACCACAAGAAGGCAUGAUACACAUGAGGAUCACCCAUGUGAGCCUUAUGCAUAUA [Ex NG1 #57] (Eterna round: R96, puzzle: Exclusion NG 1) |  |  | 16.5 nM | 
AAUUAUUUUUGAGGAUAUCGUGGUGAAACACCACGAGAAGGCGAGAUACACAUGAGGAUCACCCAUGUGAGCCUGAUGCUUAUG [Ex NG1 #51] (Eterna round: R96, puzzle: Exclusion NG 1) |  |  | 11.5 nM | 
AAUUUACAUGAGGAUCACCCAUGUGAGGAUAUAUAUAUAUAUUUGUUAUUGUAUGUUUGUAGAAGGCGCGUGAU [JR_Exc1_Sub033] (Eterna round: R97, puzzle: Exclusion 1) | 33 nM | 39.2 nM |  | 
AAUUUGCAAGCGAGAUCCCACAUGAGGAUCACCCAUGUGCUCGUCUUAUAAGGUACUGUGACGAGAGUCACGGUACC [Mat - Sensor, turn-off var - Eli Mod - D91] (Eterna round: R97, puzzle: Sensor, turn-off variant 1) | 15.6 nM | 12.1 nM |  | 
ACAAAGCGAGGAUAUACACAGGUGUCCUGGGCGUCAAAUCGACAUGAGGAUCACCCAUGUAGAAGGCGCAAUAG [Diedated] (Eterna round: R97, puzzle: Exclusion 2) | 44.9 nM | 36.9 nM |  | 
